Assay results taken from patent publication US20180028658A1.

Legend:
[1] = molecular target: HIV-1 Yu2 gp160 (Env) expressed on the 293T cell surface (HIV-1 Yu2) (UniProt P35961); assay: flow cytometry, 293T cells transfected with Yu2 gp160, primary antibody 10 µg/ml
[2] = molecular target: HIV-1 gp41 (strain not stated) (HIV-1); assay: SPR (BIAcore), Env protein immobilized on CM5 chip, antibody as analyte
[3] = molecular target: Recombinant HIV-1 gp41MN (HIV-1 MN) (UniProt P05877); assay: ELISA on coated gp41 (HIV-1 MN per the example), OD at 405 nm
[4] = molecular target: BG505 SOSIP.664 gp140 trimer (HIV-1 BG505); assay: ELISA on coated BG505 SOSIP.664 gp140 trimer, OD at 405 nm, 1x PBS as blank
[5] = molecular target: full-length gp120 monomer (HIV-1 (Yu2 by the materials, not named in the results)) (UniProt P35961); assay: ELISA on coated full-length gp120 monomer, OD at 405 nm, 1x PBS as blank
[6] = molecular target: SF162 gp140 trimer (HIV-1 SF162) (UniProt P19550); assay: ELISA on coated SF162 gp140 trimer, OD at 405 nm, 1x PBS as blank
Chain of SF162 gp140 trimer (HIV-1 SF162) (P19550 32-675 limits assumed): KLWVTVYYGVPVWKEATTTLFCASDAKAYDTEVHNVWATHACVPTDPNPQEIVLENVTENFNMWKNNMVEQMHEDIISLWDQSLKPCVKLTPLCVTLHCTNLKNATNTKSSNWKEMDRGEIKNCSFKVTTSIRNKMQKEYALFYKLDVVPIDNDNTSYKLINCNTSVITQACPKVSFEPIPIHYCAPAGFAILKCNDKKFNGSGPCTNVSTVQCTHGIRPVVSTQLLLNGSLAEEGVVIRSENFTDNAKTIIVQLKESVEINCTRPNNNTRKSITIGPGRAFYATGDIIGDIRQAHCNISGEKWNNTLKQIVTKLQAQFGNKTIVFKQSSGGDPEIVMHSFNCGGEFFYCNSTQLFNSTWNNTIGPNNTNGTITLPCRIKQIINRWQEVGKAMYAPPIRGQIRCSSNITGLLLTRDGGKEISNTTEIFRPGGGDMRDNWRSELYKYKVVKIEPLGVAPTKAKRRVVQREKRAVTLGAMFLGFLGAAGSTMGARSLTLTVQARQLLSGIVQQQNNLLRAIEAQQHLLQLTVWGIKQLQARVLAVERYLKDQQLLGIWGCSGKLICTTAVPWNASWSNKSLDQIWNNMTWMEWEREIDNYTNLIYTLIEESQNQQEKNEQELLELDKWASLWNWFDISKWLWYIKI

[7] = molecular target: full-length gp120 monomer (HIV-1 (Yu2 by the materials, not named in the results)) (UniProt P35961); assay: SPR (BIAcore), Env protein immobilized on CM5 chip, antibody as analyte
[8] = molecular target: BG505 SOSIP.664 gp140 trimer (HIV-1 BG505); assay: method not given
[9] = molecular target: HIV-1 gp41 (strain not stated) (HIV-1); assay: method not given
[10] = molecular target: full-length gp120 monomer (HIV-1 (Yu2 by the materials, not named in the results)) (UniProt P35961); assay: method not given

## HIV 1 V3 Monoclonal Antibody (2191)
[1]
  Percentage of recognition of HIV-1 Env: 2.9%

## HIV 1 V3 Monoclonal Antibody (2219)
[1]
  Percentage of recognition of HIV-1 Env: 3.1%

## HIV 1 V3 Monoclonal Antibody (2442)
[1]
  Percentage of recognition of HIV-1 Env: 6.6%

## HIV 1 V3 Monoclonal Antibody (3074)
[1]
  Percentage of recognition of HIV-1 Env: 3.4%

## HIV 1 V3 Monoclonal Antibody (3869)
[1]
  Percentage of recognition of HIV-1 Env: 2.6%

## HIV 1 gp41 Monoclonal Antibody (167-7, 67-D IV)
[1]
  Percentage of recognition of HIV-1 Env: 11.8%

## HIV-1 MAb PG9 (antibody)
[1]
  Percentage of recognition of HIV-1 Env: 6%

## HIV-1 MAb PG16 (antibody)
[1]
  Percentage of recognition of HIV-1 Env: 1.5%

## HIV-1 V2V3 Monoclonal Antibody (2909)
[1]
  Percentage of recognition of HIV-1 Env: 5.6%

## HIV-1 anti-gp41 mAb (7H6) (antibody)
[1]
  Percentage of recognition of HIV-1 Env: 19.8%

## HIV-1 anti-gp41 mAb (10E8) (antibody)
[2]
  Kd: 15.5 nM
  koff: 0.000901 s⁻¹
[1]
  Percentage of recognition of HIV-1 Env: 11.7%

## HIV-1 gp41 MAb (IgG1 Z13e1) (antibody)
[1]
  Percentage of recognition of HIV-1 Env: 5.2%

## HIV-1 gp41 Monoclonal (98-6) (antibody)
[1]
  Percentage of recognition of HIV-1 Env: 3.5%

## HIV-1 gp41 Monoclonal (126-7) (antibody)
[1]
  Percentage of recognition of HIV-1 Env: 3.2%

## HIV-1 gp41 Monoclonal Antibody (2F5)
[1]
  Percentage of recognition of HIV-1 Env: 9.9%
[3]
  EC50 (read off the curve): 0.03 µg/mL

## HIV-1 gp41 Monoclonal Antibody (4E10)
[2]
  Kd: 10.8 nM
  koff: 2.14e-05 s⁻¹
  kon: 1980 M⁻¹ s⁻¹
[1]
  Percentage of recognition of HIV-1 Env: 13.4%
[3]
  EC50 (read off the curve): 0.03 µg/mL

## HIV-1 gp41 Monoclonal Antibody (5F3)
[1]
  Percentage of recognition of HIV-1 Env: 6.4%

## HIV-1 gp41 Monoclonal Antibody (50-69)
[1]
  Percentage of recognition of HIV-1 Env: 4.5%

## HIV-1 gp41 Monoclonal Antibody (F240)
[1]
  Percentage of recognition of HIV-1 Env: 3.5%

## HIV-1 gp120 MAb (39F) (antibody)
[1]
  Percentage of recognition of HIV-1 Env: 2.6%

## HIV-1 gp120 MAb (A32) (antibody)
[1]
  Percentage of recognition of HIV-1 Env: 79.2%

## HIV-1 gp120 MAb (HJ16) (antibody)
[1]
  Percentage of recognition of HIV-1 Env: 17.6%

## HIV-1 gp120 MAb (VRC01) (antibody)
[4]
  EC50 (read off the curve): 0.03 µg/mL
[1]
  Percentage of recognition of HIV-1 Env: 6%
[5]
  EC50 (read off the curve): 0.3 µg/mL
[6]
  EC50 (read off the curve): 0.05 µg/mL

## HIV-1 gp120 MAb (VRC03) (antibody)
[1]
  Percentage of recognition of HIV-1 Env: 6.4%

## HIV-1 gp120 Monoclonal (2G12) (antibody)
[1]
  Percentage of recognition of HIV-1 Env: 22.8%

## HIV-1 gp120 Monoclonal Antibody (17b)
[7]
  Kd: 0.982 nM
  koff: 2.59e-06 s⁻¹
[1]
  Percentage of recognition of HIV-1 Env: 1.5%

## HIV-1 gp120 Monoclonal Antibody (48d)
[1]
  Percentage of recognition of HIV-1 Env: 3.1%

## HIV-1 gp120 Monoclonal Antibody (F105)
[1]
  Percentage of recognition of HIV-1 Env: 4.5%

## HIV-1 gp120 Monoclonal Antibody (F425 B4a1)
[1]
  Percentage of recognition of HIV-1 Env: 2.5%

## HIV-1 gp120 Monoclonal Antibody (F425 B4e8)
[1]
  Percentage of recognition of HIV-1 Env: 6.4%

## HIV-1 gp120 Monoclonal Antibody (IgG1 b12)
[1]
  Percentage of recognition of HIV-1 Env: 9.8%

## Monoclonal Antibodies to HIV-1 V3 (268) (antibody)
[1]
  Percentage of recognition of HIV-1 Env: 2.1%

## NIH45-46 (antibody)
[4]
  EC50 (read off the curve): 0.02 µg/mL
[8]
  Kd: 0.1 nM
[9]
  Kd: 1 nM
[10]
  Kd: 0.1 nM
[6]
  EC50 (read off the curve): 0.2 µg/mL
